# Assay results: the DeepSol protein solubility set
# Assay: soluble on expression in E. coli; label from the status in PepcDB or PDB records
row,Sequence,soluble on expression in E. coli
1,IEIRSVVYQIEGQPYESRLVYDSSATALQPGLLMAPNWMGVSRGAEDIARAVAAKGYVVLLADLYGQQLRPSNNDEAGAAMTPLKNDRGLLRKRMQAGLDQLLSQADVSLDVSRIATFGFCFGGCCSLELARTGAELKAAISFHGTLDTPNPADASNIKGSVLVLHGASDPLVPKEQLPAFEEEMNAAGVDWQLHSHGGAFHSFTDPHANVPGMMMYDAKVSARAFKSMHDLLKEVFG,not soluble
2,MSLSTGDASGAPAVWSHGYTEASGVKNKLCVAALSVNNFCDNREALYGVFDGDRNVEVPYLLQCTMSDILAEELQKTKNEEEYMVNTFIVMQRKLGTAGQKLGGAAVLCHIKHDPVDPGGSFTLTSANVGKCQTVLCRNGKPLPLSRSYIMSCEEELKRIKQHKAIITEDGKVNGVTESTRILGYTFLHPSVVPRPHVQSVLLTPQDEFFILGSKGLWDSLSVEEAVEAVRNVPDALAAAKKLCTLAQSYGCHDSISAVVVQLSVTEDEGHHHHHH,soluble
3,MCMSLRESAAAADAGAGPLAGSARDLLAQWNGGEDVWVFAYGSLIWRPDFAWQERRLATVRGYHRSLLWSHDHRGSPDNPGLVFGLDRGGCCRGVAFRVAGRDVPEVFQALWHREMSGGAYKPRWLRCHTGQAPVRGLAFVPDRRCRHYAGALSDELLIRAVRQAVGRSGACLDYVRETHRALNEHGIVDWRLGALVDRLAQPLEHHHHHH,not soluble
4,STGVPATDLQQSIMKNVQPIELYFDNELVTDCSALGVYDNSYLVPLHLFEFDFDTIVLGGRHYKKAECEKVEFELEVNGDMVSSDACLLRVPSGPKVRNIVHLFTNEIELKKMTQVTGIMNSPHQARTVFFGSFLTVRKSILTSDGTVMPNVLSYAAQTSRGYCGAAIVAGSPARIIGIHSAGTGSVAFCSLVSKDALERTLPQKQ,not soluble
5,MKPFLSACLIVKNEEEMLGKCLESLRRVIEEIIVVDTGSTDSTKEIARQFTDKVYDFEWMNDFSEARNFAASKANGEWIIAIDADECVDPDNFKEAIKEIKFHQNKFNMYLVEITSFSGALGENTTVNQMPRIYVNDGTICYKRAIHEQLEAVEGGLRVSLSSLKVYHYGYLSNVVVKQDKKS,soluble
6,MSFDKQNLIWIDLEMTGLDPEKERIIEIATIVTDKNLNILAEGPVLAVHQSDELLNKMNDWCQKTHSENGLIERIKASKLTERAAELQTLDFLKKWVPKGASPICGNSIAQDKRFLVKYMPDLADYFHYRHLDVSTLKELAARWKPEILEGFKKENTHLALDDIRESIKELAYYREHFMKLDLEHHHHHH,soluble
7,MYQNILVPLDGSDNAYMALKHAVKLAQTFKSKLFLVNVIDITRLNAYSPAAYGGTLYTNLLKVAKDNSQDILDRGQQMASAAQVESLPIQVNSSPKASIATDIPKKYAIDLIVMGKSGTNAVSRILLGSTTAYVVQKAEVNVTVIN,not soluble
8,MSMSDINKNSELIFIPAPGIGHLASALEFAKLLTNHDKNLYITVFCIKFPGMPFADSYIKSVLASQPQIQLIDLPEVEPPPQELLKSPEFYILTFLESLIPHVKATIKTILSNKVVGLVLDFFCVSMIDVGNEFGIPSYLFLTSNVGFLSLMLSLKNRQIEEVFDDSDRDHQLLNIPGISNQVPSNVLPDACFNKDGGYIAYYKLAERFRDTKGIIVNTFSDLEQSSIDALYDHDEKIPPIYAVGPLLDLKGQPNPKLDQAQHDLILKWLDEQPDKSVVFLCFGSMGVSFGPSQIREIALGLKHSGVRFLWSNSAEKKVFPEGFLEWMELEGKGMICGWAPQVEVLAHKAIGGFVSHCGWNSILESMWFGVPILTWPIYAEQQLNAFRLVKEWGVGLGLRVDYRKGSDVVAAEEIEKGLKDLMDKDSIVHKKVQEMKEMSRNAVVDGGSSLISVGKLIDDITGSN,soluble
9,MDPLDRLIQLANLQGRLDQRCQLQGSWALEHPQAVPGEATFHIVMAGTCYCEFLDGGRLDLHPGDLILLPRGTPHLLRSDSPAQPCEPTVEHRGSIPLYQLNGPGEALDMLCGSYRYHAGASLFGALPERLLVHMDESTQQPLRALIGLMREEAESTRSGARSIIDALATALFALALRAYLDRQPLGDGLFGLLGDARLGRALRAMLERPEHAWTLEQLAQQAAMSRASFVRAFSALGGTSPWNLLTRIRMEKARGLLRQTQKSLLDIAAETGYQSEAAFSRNFRQAFGESPGRFRRQADSAR,not soluble
10,GSHMAGLPRRIIKETQRLLAEPVPGIKAEPDESNARYFHVVIAGPQDSPFEGGTFKLELFLPEEYPMAAPKVRFMTKIYHPNVDKLGRICLDILKDKWSPALQIRTVLLSIQALLSAPNPDDPLANDVAEQWKTNEAQAIETARAWTRLYAMNNI,soluble
11,MQGVQEQIEELQTKLAFQELTVEELNQEVIKLNQLVAHQQHQIQLLIGKLQAIEPSNMATQAEETPPPHY,soluble
12,MIPTERRQIILDMVAEKGIVSIAELTERMHVSHMTIRRDLQKLEQQGAVIQVSGGVQSSTRVAHEPSHQIKTELATPQKAAIGKLAASLVQPESCIYLDAGTTTLAIARQLVTMNKLTVVTNDFVIADYLMDNSNCTIIHTGGAVCRENRSCVGEAAATLLRGLMIDQAFISASSWSVRGISTPAEDKVTVKRAVASASRQKILVCDATKYGQVATWLALPLAEFNQIVTDDGLPESAIRALAKVDISLLMAKQLEHHHHHH,soluble
13,MGHHHHHHSHMDQRQRRILGQPLSIPTSQPKQKRTSMISFFSKVSWKLRFQKREPLKNVFFILAERARDPSAKKRHMAMRNLGTMAYEAPDKVRKYKKIVLDLLVYGLYDPVNLEVIHESMKTLTVVLGKIQGKGLGSFFIDIALQTRTLLDDENDSLRYSAFVLFGQLAAFAGRKWKKFFTSQVKQTRDSLLIHLQDRNPQVAKACKTTFQACSPYLKLKEEYSFQSEEDQRNTKLYQQLSHYHPEILQFFYANKIL,not soluble
14,MTISEVSKKYELSADTLRYYERIGLIPPVNRNKSGIRSFTEEDCEWVNFIKCMRGAGLSIETLIEYVAMFQQGSSTIKARKELLIEQRNQLAKRIEEMQKTLERLNFKIDRYEEGIIEKEKVLKSSRNKKMEAVSYE,not soluble
15,MSLNSLDTSASTINGASIIQVIFEIFEISLQRKDYTSIVQCCEFMTMLTPNYLHLVSSYLNKSDLLDKYGKTGLSNMILGSVELSTGDYTFTIQLLKLTKVFIRESLSLKNIHISKRSKIDIINKLILHAIHIFESYYNWKYNNFLQKFEIAFHLTLIFYDVLHDVFTINPHQKDQLIISSSANKLLQLFLTPMDSIDLAPNTLTNILISPLNTTTKILGDKILGNLYSKVMNNSFKLCTLLISIRGSNRDLKPSNLEKLLFINSSKLVDVYTLPSYVHFKVQIIELLSYLVEAPWNDDYPFLLSFLGEAKSMAFLKEVLSDLSSPVQDWNLLRSLYIFFTTLLESKQDGLSILFLTGQFASNKKINDESSIDKKSSILTVLQKNSLLLDSTPEEVSCKLLETITYVLNTWTNSKIFIKDPKFVNSLLAKLKDSKKLFQKKENLTRDETVSLIKKYKLISRIVEIFALCIYNSTDSNSEILNFLNQEDLFELVHHFFQIDGFNKTFHDELNLKFKEKWPSLELQSFQKIPLSRINENENFGYDIPLLDIVLKADRSWNEPSKSQTNFKEEITDASLNLQYVNYEISTAKAWGALITTFVKRSTVPLNDGFVDLVEHFLKLNIDFGSDKQMFTQIYLERIELSFYILYSFKLSGKLLKEEKIIELMNKIFTIFKSGEIDFIKNIGKSLKNNFYRPLLRSVLVLLELVSSGDRFIELISDQLLEFFELVFSKGVYLILSEILCQINKCSTRGLSTDHTTQIVNLEDNTQDLLLLLSLFKKITNLNPSKNFNVILASSLNEVGTLKVILNLYSSAHLIRINDEPILGQITLTFISELCSIEPIAAKLINSGLYSVLLESPLSVAIQQGDIKPEFSPRLHNIWSNGLLSIVLLLLSQFGIKVLPETCLFVSYFGKQIKSTIYNWGDNKLAVSSSLIKETNQLVLLQKMLNLLNYQELFIQPKNSDDQQEAVELVIGEGHHHHHH,not soluble
16,SLPSVLDTLAAHSDNPSSFLALNSGNAYFHDGGFDGACAYRTSGRYVLQFGGPFTAPEHRARLLDAFAAHAGRRLVAVQLQRADAELYAAHGFTVNQLGASYAVDLSRFTLRGSRFVRLRNKISRARRAGLEVAEVMAGDDCAELDRIDQCWLRDKGRHVKELRFLVGQRNGSLQRHRRLFVGRIDGETAGYINYSPVYGSRSGWLHDLSRRRPDAPPGVMEALNATVMERLTAEGAGWLHFGFTPFTGLDPEHELPGASRMFTRFARLLAERGDVIYPAASQLEYKQKWAPHVVLPEYIAFRGRPRPGAVWQLLRATNAL,soluble
17,MRMRHKPWADDFLAENADIAISNPADYKGKWNTVFGNDNPIHIEVGTGKGQFISGMAKQNPDINYIGIELFKSVIVTAVQKVKDSEAQNVKLLNIDADTLTDVFEPGEVKRVYLNFSDPWPKKRHEKRRLTYSHFLKKYEEVMGKGGSIHFKTDNRGLFEYSLKSFSEYGLLLTYVSLDLHNSNLEGNIMTEYEEKFSALGQPIYRAEVEWRTLEHHHHHH,not soluble
18,MSLSEKTFPSHARVVIVGGGVMGVGLAYHLAHEGWGHDTVLLEKAELTSGSTWHAAGQITHSTSSYGLGKCVDYNIGLYSGGLEAETGQAVTWHGCGSFRLAYTEDEMDWLRHTLSVGRSLGFNIDLVSPQRVAELHPFYNLDGVLGALHTPDDGHVDPTNVTMALAAGARAKGVRIIRRCRASNITQLASGEWQVETDQGTITCEHVVNAGGTYARQMGEWSGLQLPMTSMTHHYFVTENVPEFEALDRELPVIRDDKKVSGYIRMEQKRGLIGIYEKANPNAVWLDECPWDYENWLFDADYDRVMPWLEESLNRMPVLAERGITREVHGAISHPPDGNPLIGPAPGVRNYWCCCGTQIGIGWGPGLTRELARWMVHGAADISMRDYDPRRFGSYATKEWQVIKAKEDYCLRHEIPFPHFNRLAGRPVKPSPLYDRLKSKGAVFEEVYGHERPRWFAKAGIAQHDHYGFGRTPVHDVVGDECRAVREAAGIMDISAFTKVELSGPEAETLLDRLVANRLPRKTGGIALTHMLNAAGRIELETTVVRLASDRFYLVCAAFFEQRLLDHLDRHRGTADVTVTLRSNDWAALTLNGPRSRDILATCTDAPLDNAAFPWLTAQEITVAGHRLWAFRMSYAGELGWEFHMPRDAALAVYDALWAAGAPLGLADYGSFAMNAMRMEKGFKGAGELTNEVTLAEADVLRFARTDKAYIGREATLAPARRFVCAYLEIAPDGAHDGHGGEAVLLQGKVVGSTASVAYGHSCGKILAFAYVRPEANVAGTEVEVVIAGTPRPARILGAPAYDPEGLLPRTDAKGIITITTDPNSSSVDKLAAALEHHHHHH,soluble
19,MKKTLYIFQNGELRRKDHSLYFETEERKRYIPVENTNDIYIFGEVDVSKRFLEFAAQKEIIVHYFNHYGYYVGSFYPREHLNSGHVVLKQAEHYIDPAKRLELACLFVQGSIRQMERVLKYYRSRLSDPEELEKALQLIEREEGKLSQANTVEQLMAVEGHIREAYYASFDAILRHPDFVFEKRTKRPPHNRLNALISFGNSIVYTMCLSEIYKTYLDPRIGFLHSTNFRRFSLNLDIAEIFKPIIVDRLIFTLVNKRMLSSKHFEKLTNGIVLNEEGRKLFVSELEKKMQTTVQHRHLGKSVSYRRLIRLELYKVQKHILGEKMYEPYAARW,not soluble
